Values quoted from earlier work, collected in paper PMC11809415, “Structure of the F-tractin–F-actin complex” (The Journal of Cell Biology, 2025).
“And” between values parts separate entries of the source, which are not always exact repeats. Equal values may be shown once.

Target: F-actin (Oryctolagus cuniculus) (UniProt P68135)

Lifeact (from UniProt Q08641)
Kd: 14.9 µM and 5.8 µM
